Assay results published in US20260209359A1 (NEXTERA, published 2026).

How the values were obtained:
[1] = molecular target: T1, HLA-A*02:01/MAGE-A4^230-239 displayed on cells (MAGE-A4^230-239 pulsed T2 cells; NCI-H1703, A375, THP1, … (human, UniProt P04439 25-365 at identity 0.94); P61769 21-119); test: cell-based or functional assay
[2] = molecular target: T1, HLA-A*02:01/MAGE-A4^230-239 displayed …; test: cell-based or functional assay; remark: listed apart in the source
[3] = molecular target: T1, HLA-A*02:01/MAGE-A4^230-239 displayed …; test: cell-based or functional assay; remark: listed apart in the source
[4] = molecular target: T1, HLA-A*02:01/MAGE-A4^230-239 displayed …; test: cell-based or functional assay; remark: listed apart in the source
[5] = molecular target: T2, HLA-A*02:01/MAGE-A4^230-239, soluble recombinant biotinylated pHLA (human, UniProt P04439 25-299 at identity 0.94); P61769 21-119, biotinylated); test: ELISA, soluble biotinylated pHLA on neutravidin, scDb, protL-HRP
T2 construct: Empty biotinylated HLA-A2 monomers (Tetramer Shop) loaded with synthetic peptide; also called MAGE-A4 pMHC; MAGE-A4-pHLA
Protocol: ELISA plates were coated with 5 μg/mL NeutrAvidin in PBS and incubated 16 h/4° C. (step (a)) and blocked with 5% skim milk powder in PBST for 1 h/room temperature (RT) (step (c)). […] Bound phage particles were detected with an anti-Fd antibody (anti-M13-HRP (Amersham Biosciences)), whereas bound IgG1 and scDb was detected with HRP conjugated protein L (Genscript) (step (i)). […] Plates were developed with TMB solution and read at 450 nm using a microplate reader (step (k)). Between each layer, the plates were washed 3× with PBST (steps (b), (d), (f), (h), and (j)).

[6] = molecular target: T2, HLA-A*02:01/MAGE-A4^230-239, soluble …; test: SPR, biotinylated pHLA on neutravidin chip, scDb without His-tag injected (Assay 6-2)
[7] = molecular target: T2, HLA-A*02:01/MAGE-A4^230-239, soluble …; test: ELISA, biotinylated pHLA on neutravidin, protL-HRP
Protocol: Dotted lines indicate the EC₅₀ value (concentration at which half of maximal binding signal is achieved).
Assay 1 described above was performed. ELISA plates were coated with 5 μg/mL NeutrAvidin in PBS and incubated 16 h/4° C. (step (a)) and blocked with 5% skim milk powder in PBST for 1 h/room temperature (RT) (step (c)). […] Bound phage particles were detected with an anti-Fd antibody (anti-M13-HRP (Amersham Biosciences)), whereas bound IgG1 and scDb was detected with HRP conjugated protein L (Genscript) (step (i)). […] Plates were developed with TMB solution and read at 450 nm using a microplate reader (step (k)). Between each layer, the plates were washed 3× with PBST (steps (b), (d), (f), (h), and (j)).

[8] = molecular target: T2, HLA-A*02:01/MAGE-A4^230-239, soluble …; test: SPR, biotinylated pHLA on neutravidin chip, Fab injected (Assay 6-1); Fab format
[9] = molecular target: T2, HLA-A*02:01/MAGE-A4^230-239, soluble …; test: SPR, biotinylated pHLA on neutravidin chip, Fab injected (Assay 6-1); Fab, not scDb

B1: AM2 scDb (bispecific antibody)
chain: DIRVTQSPSSLSASVGDRVTITCRASQNIMWYLNWYQQKPGKAPKLLIYAASSLQSGVPSRFSGSGSGTDFTLTISSLQPEDFATYYCQQSYSTPYTFGQGTKLEIKGGGGSEVQLQQSGPELVKPGASMKISCKASGYSFTGYTMNWVKQSHGKNLEWMGLINPYKGVSTYNQKFKDKATLTVDKSSSTAYMELLSLTSEDSAVYYCARSGYYGDSDWYFDVWGAGTTVTVSSGGGGSGGGGSGGGGSDIQMTQTTSSLSASLGDRVTISCRASQDIRNYLNWYQQKPDGTVKLLIYYTSRLHSGVPSKFSGSGSGTDYSLTISNLEQEDIATYFCQQGNTLPWTFAGGTKLEIKGGGGSQVQLVQSGAEVKKPGASVKVSCKVSGYTLTELSMHWVRQAPGKGLEWMGGFDPEDGETIYAQKFQGRVTMTEDTSTDTAYMELSSLRSEDTAVYYCATDQGSSWGFYWGQGTLVTVSS
notes: VLA-VHB-VLB-VHA, anti-CD3 UCHT1
With B1 the “EC50 vs. NCI-H1703 (pM), T-cell specific killing” value (from here on “EC50 vs. NCI-H1703 (pM)”) [1] was 2.2 pM, the “EC50 vs. A375 (pM), T-cell specific killing” value (“EC50 vs. A375 (pM)” below) [2] was 3.7 pM and the “EC50 vs. C-33-A (pM), T-cell specific killing” value [3] was 7.2 pM. The “EC50 vs. HuTu80 (pM), T-cell specific killing” value [3] was 7.8 pM, the “IFNγ EC50 vs. target positive cells (pM)” value [4] was 4.4 pM and the EC50 [5] was 0.32 nM.

B2: AM11 scDb (bispecific antibody)
chain: DIRVTQSPSSLSASVGDRVTITCRADIDIRWYLNWYQQKPGKAPKLLIYAASSLQSGVPSRFSGSGSGTDFTLTISSLQPEDFATYYCQQSYSTPYTFGQGTKLEIKGGGGSEVQLQQSGPELVKPGASMKISCKASGYSFTGYTMNWVKQSHGKNLEWMGLINPYKGVSTYNQKFKDKATLTVDKSSSTAYMELLSLTSEDSAVYYCARSGYYGDSDWYFDVWGAGTTVTVSSGGGGSGGGGSGGGGSDIQMTQTTSSLSASLGDRVTISCRASQDIRNYLNWYQQKPDGTVKLLIYYTSRLHSGVPSKFSGSGSGTDYSLTISNLEQEDIATYFCQQGNTLPWTFAGGTKLEIKGGGGSQVQLVQSGAEVKKPGASVKVSCKVSGYTLTELSMHWVRQAPGKGLEWMGGFDPYLARTIYAQKFQGRVTMTEDTSTDTAYMELSSLRSEDTAVYYCATDQGSSWGFYWGQGTLVTVSS
notes: as m68; without a His-tag in the SPR assay
For B2, the “EC50 vs. NCI-H1703 (pM)” value [1] was 3.1 pM, the “IFNγ EC50 vs. target positive cells (pM)” value [4] was 7.2 pM and the EC50 [5] was 0.17 nM. It also gave a Kd [6] of 3.2 nM.

B3: AM14 scDb (bispecific antibody)
chain: DIQLTQSPSSLSASVGDRVTITCRADIDIRWYLNWYQQKPGKAPKLLIYAASGLQSGVPSRFSGSGSGTDFTLTISSLQPEDFATYYCQQSYSTPFTFGPGTKVDIKGGGGSEVQLQQSGPELVKPGASMKISCKASGYSFTGYTMNWVKQSHGKNLEWMGLINPYKGVSTYNQKFKDKATLTVDKSSSTAYMELLSLTSEDSAVYYCARSGYYGDSDWYFDVWGAGTTVTVSSGGGGSGGGGSGGGGSDIQMTQTTSSLSASLGDRVTISCRASQDIRNYLNWYQQKPDGTVKLLIYYTSRLHSGVPSKFSGSGSGTDYSLTISNLEQEDIATYFCQQGNTLPWTFAGGTKLEIKGGGGSQVQLVQSGAEVKKPGASVKVSCKVSGYTLTELSMHWVRQAPGKGLEWMGGFDPEDGETIYAQKFQGRVTMTEDTSTDTAYMELSSLRSEDTAVYYCATDQGSSWGFYWGQGTLVTVSS
notes: as for B2
For B3, the “EC50 vs. NCI-H1703 (pM)” value [1] was 5.1 pM, the “IFNγ EC50 vs. target positive cells (pM)” value [4] was 4.1 pM and the EC50 [5] was 0.1 nM. It also gave a Kd [6] of 0.44 nM.

B4: AMC9 scDb (bispecific antibody)
chain: DIRVTQSPSSLSASVGDRVTITCRASQNIMWYLNWYQQKPGKAPKLLIYAASSLQSGVPSRFSGSGSGTDFTLTISSLQPEDFATYYCQQSYSTPYTFGQGTKLEIKGGGGSEVQLQQSGPELVKPGASMKISCKASGYSFTGYTMNWVKQSHGKNLEWMGLINPYKGVSTYNQKFKDKATLTVDKSSSTAYMELLSLTSEDSAVYYCARSGYYGDSDWYFDVWGAGTTVTVSSGGGGSGGGGSGGGGSDIQMTQTTSSLSASLGDRVTISCRASQDIRNYLNWYQQKPDGTVKLLIYYTSRLHSGVPSKFSGSGSGTDYSLTISNLEQEDIATYFCQQGNTLPWTFAGGTKLEIKGGGGSQVQLVQSGAEVKKPGASVKVSCKVSGYTLTELSMHWVRQAPGKGLEWMGGFDPEDGETIYAQKFQGRVTMTEDTSTDTAYMELSSLRSEDTAVYYCATDQGASWGFYWGQGTLVTVSS
notes: as m68
In the case of B4, the “EC50 vs. NCI-H1703 (pM)” value [1] is reported as 1.68 pM, the “EC50 vs. A375 (pM)” value [2] is reported as 2.4 pM and the “EC50 vs. C-33-A (pM), T-cell specific killing” value [3] is reported as 1.33 pM. The “EC50 vs. HuTu80 (pM), T-cell specific killing” value [3] was 6.6 pM, the “IFNγ EC50 vs. target positive cells (pM)” value [4] was 7.6 pM and the EC50 [5] was 0.62 nM.

B5: AM17 scDb (bispecific antibody)
chain: DIRLTQSPSSLSASVGDRVTMTCRASQTVATYVNWYQQKPGRAPKLLMYVTSIRQSEVPSRFSGDGFGTDFTLTINPLQPDDFATYYCQQAYSTPVTFGQGTKLEIKGGGGSEVQLQQSGPELVKPGASMKISCKASGYSFTGYTMNWVKQSHGKNLEWMGLINPYKGVSTYNQKFKDKATLTVDKSSSTAYMELLSLTSEDSAVYYCARSGYYGDSDWYFDVWGAGTTVTVSSGGGGSGGGGSGGGGSDIQMTQTTSSLSASLGDRVTISCRASQDIRNYLNWYQQKPDGTVKLLIYYTSRLHSGVPSKFSGSGSGTDYSLTISNLEQEDIATYFCQQGNTLPWTFAGGTKLEIKGGGGSQVQLVQSGAEVKKPGASVKVSCKVSGYTLTELSMHWVRQAPGKGLEWMGGFDPEDGETIYAQKFQGRVTMTEDTSTDTAYMELSSLRSEDTAVYYCATDQGSSWGFYWGQGTLVTVSS
notes: as for B2
In the case of B5, the “EC50 vs. NCI-H1703 (pM)” value [1] is reported as 2.9 pM, the “IFNγ EC50 vs. target positive cells (pM)” value [4] is reported as 10.9 pM and the EC50 [5] is reported as 0.3 nM. For the same binder, the Kd [6] was 10.8 nM.

B6: AMC8 scDb (bispecific antibody)
chain: DIRLTQSPSSLSASVGDRVTMTCRASQTVATYVNWYQQKPGRAPKLLMYVTSIRQSEVPSRFSGDGFGTDFTLTINPLQPDDFATYYCQQAYSTPVTFGQGTKLEIKGGGGSEVQLQQSGPELVKPGASMKISCKASGYSFTGYTMNWVKQSHGKNLEWMGLINPYKGVSTYNQKFKDKATLTVDKSSSTAYMELLSLTSEDSAVYYCARSGYYGDSDWYFDVWGAGTTVTVSSGGGGSGGGGSGGGGSDIQMTQTTSSLSASLGDRVTISCRASQDIRNYLNWYQQKPDGTVKLLIYYTSRLHSGVPSKFSGSGSGTDYSLTISNLEQEDIATYFCQQGNTLPWTFAGGTKLEIKGGGGSQVQLVQSGAEVKKPGASVKVSCKVSGYTLTELSMHWVRQAPGKGLEWMGGFDPEDGETIYAQKFQGRVTMTEDTSTDTAYMELSSLRSEDTAVYYCATDQGASWGFYWGQGTLVTVSS
notes: as m68
In the case of B6, the “EC50 vs. NCI-H1703 (pM)” value [1] is reported as 2.51 pM, the “EC50 vs. A375 (pM)” value [2] is reported as 1.6 pM and the “IFNγ EC50 vs. target positive cells (pM)” value [4] is reported as 7.7 pM. For the same binder, the EC50 [5] was 0.88 nM.

B7: 1-H02 full length human IgG1 (antibody, V domains shown)
VH: QVQLVQSGAEVKKPGASVKVSCKVSGYTLTELSMHWVRQAPGKGLEWMGGFDPEDGETIYAQKFQGRVTMTEDTSTDTAYMELSSLRSEDTAVYYCATDQGSSWGFYWGQGTLVTVSS
VL: not shown
notes: also called 1-H02 hIgG1; 1-H02 IgG
Binder B7 has an EC50 [7] of 1.1 nM.

B8: AM2 Fab (Fab, V domains shown)
VH: QVQLVQSGAEVKKPGASVKVSCKVSGYTLTELSMHWVRQAPGKGLEWMGGFDPEDGETIYAQKFQGRVTMTEDTSTDTAYMELSSLRSEDTAVYYCATDQGSSWGFYWGQGTLVTVSS
VL: DIRVTQSPSSLSASVGDRVTITCRASQNIMWYLNWYQQKPGKAPKLLIYAASSLQSGVPSRFSGSGSGTDFTLTISSLQPEDFATYYCQQSYSTPYTFGQGTKLEIKR
B8 showed a Kd [8] of 86.3 nM.

B9: AM10 Fab (Fab, V domains shown)
VH: QVQLVQSGAEVKKPGASVKVSCKVSGYTLTELSMHWVRQAPGKGLEWMGGFDPEDGETIYAQKFQGRVTMTEDTSTDTAYMELSSLRSEDTAVYYCATDQGASWGFYWGQGTLVTVSS
VL: not shown
notes: Fab format
In the case of B9, the Kd [8] is reported as 325 nM.

B10: 1-H02 Fab (Fab, V domains shown)
VH: QVQLVQSGAEVKKPGASVKVSCKVSGYTLTELSMHWVRQAPGKGLEWMGGFDPEDGETIYAQKFQGRVTMTEDTSTDTAYMELSSLRSEDTAVYYCATDQGSSWGFYWGQGTLVTVSS
VL: not shown
notes: Fab format
B10 gave a Kd [9] of 1410 nM.

B11: AMC9 Fab (Fab, V domains shown)
VH: QVQLVQSGAEVKKPGASVKVSCKVSGYTLTELSMHWVRQAPGKGLEWMGGFDPEDGETIYAQKFQGRVTMTEDTSTDTAYMELSSLRSEDTAVYYCATDQGASWGFYWGQGTLVTVSS
VL: DIRVTQSPSSLSASVGDRVTITCRASQNIMWYLNWYQQKPGKAPKLLIYAASSLQSGVPSRFSGSGSGTDFTLTISSLQPEDFATYYCQQSYSTPYTFGQGTKLEIKR
For B11, the Kd [8] was 15.8 nM.

B12: AM15 Fab (Fab, V domains shown)
VH: QVQLVQSGAEVKKPGASVKVSCKVSGYTLTELSMHWVRQAPGKGLEWMGGFDPEDGETIYAQKFQGRVTMTEDTSTDTAYMELSSLRSEDTAVYYCATDQGSSWGFYWGQGTLVTVSS
VL: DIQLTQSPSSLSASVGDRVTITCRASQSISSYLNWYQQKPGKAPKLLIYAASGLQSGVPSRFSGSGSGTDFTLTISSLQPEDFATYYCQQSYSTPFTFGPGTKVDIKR
In the case of B12, the Kd [8] is reported as 148 nM.
